From publication PMC10669680

Biological target: HIV-1 reverse transcriptase p51 (isolated polymerase domain) with the C38V/C280S/M357T substitutions, no affinity tag (HIV-1)
Assay: SEC; Superdex 200 Increase 5/150, SEC buffer 50 mM Bis-Tris, 1 M NaCl, 1 mM CDTA, pH 6.5; samples 80% SEC buffer, 20% glycerol; [NaCl] varied 0.15-1.0 M and [p51] varied 10-80 µM; monomer to dimer

Substance: HIV-1 reverse transcriptase p51 (isolated polymerase domain) with the C38V/C280S/M357T substitutions, no affinity tag (domain or fragment)
- stoichiometry N: 2
